Data: patent publication US20260234228A1 (GENOME, published 2026)

T1: mouse CNTN4 overexpressed on 293F cells (mouse, UniProt Q69Z26 19-1000)
T1 construct: whole, on cells; Overexpressed on 293F cells; the construct is not described; also called Mouse CNTN4 cell; mouse antigen-overexpressing 293F cells
T1 sequence (looked up): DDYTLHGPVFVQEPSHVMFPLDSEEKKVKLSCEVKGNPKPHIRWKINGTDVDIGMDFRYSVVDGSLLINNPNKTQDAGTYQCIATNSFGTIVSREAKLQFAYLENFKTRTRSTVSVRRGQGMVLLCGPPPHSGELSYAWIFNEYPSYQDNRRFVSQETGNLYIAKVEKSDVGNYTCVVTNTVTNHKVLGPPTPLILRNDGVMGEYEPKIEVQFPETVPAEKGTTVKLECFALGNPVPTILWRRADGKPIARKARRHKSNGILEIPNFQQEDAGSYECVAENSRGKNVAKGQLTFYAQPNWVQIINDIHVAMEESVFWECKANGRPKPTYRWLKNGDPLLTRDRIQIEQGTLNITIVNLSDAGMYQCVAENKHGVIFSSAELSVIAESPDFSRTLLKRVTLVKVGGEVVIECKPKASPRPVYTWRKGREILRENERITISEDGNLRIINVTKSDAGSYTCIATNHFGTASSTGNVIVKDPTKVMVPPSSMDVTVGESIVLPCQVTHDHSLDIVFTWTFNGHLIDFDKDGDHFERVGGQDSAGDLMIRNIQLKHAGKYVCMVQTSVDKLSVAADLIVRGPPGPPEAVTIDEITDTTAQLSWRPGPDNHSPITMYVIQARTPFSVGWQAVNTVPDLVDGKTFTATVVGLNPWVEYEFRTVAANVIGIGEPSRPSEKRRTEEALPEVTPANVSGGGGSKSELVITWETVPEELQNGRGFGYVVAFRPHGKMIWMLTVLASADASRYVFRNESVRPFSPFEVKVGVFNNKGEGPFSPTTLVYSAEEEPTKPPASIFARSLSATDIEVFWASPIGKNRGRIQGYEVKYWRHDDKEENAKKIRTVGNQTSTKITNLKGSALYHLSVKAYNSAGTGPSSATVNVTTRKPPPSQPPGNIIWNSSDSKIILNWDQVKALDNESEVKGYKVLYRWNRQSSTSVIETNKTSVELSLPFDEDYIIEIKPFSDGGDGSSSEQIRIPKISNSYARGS

B1: A108 scFv (scFv, V domains shown)
VH: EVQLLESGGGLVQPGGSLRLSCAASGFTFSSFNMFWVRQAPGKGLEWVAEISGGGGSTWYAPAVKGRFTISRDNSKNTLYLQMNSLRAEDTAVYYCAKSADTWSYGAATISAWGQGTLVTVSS
VL: ELTQDPAVSVALGQTVRITCSGSSGSYGWYQQKPGQAPVLVIYDNTNRPSGIPDRFSGSSSGNTASLTITGAQAEDEADYYCGGYDGSTDVFGGGTKLTVL
B2: A114 scFv (scFv, V domains shown)
VH: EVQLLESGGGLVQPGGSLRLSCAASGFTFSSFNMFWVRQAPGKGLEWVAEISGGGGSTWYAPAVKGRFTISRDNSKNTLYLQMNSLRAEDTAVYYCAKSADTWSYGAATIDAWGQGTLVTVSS
VL: ELTQDPAVSVALGQTVRITCSGSSGSYGWYQQKPGQAPVLVIYDNTNRPSGIPDRFSGSSSGNTASLTITGAQAEDEADYYCGGYWGSTDVFGGGTKLTVL
B3: A103 scFv (scFv, V domains shown)
VH: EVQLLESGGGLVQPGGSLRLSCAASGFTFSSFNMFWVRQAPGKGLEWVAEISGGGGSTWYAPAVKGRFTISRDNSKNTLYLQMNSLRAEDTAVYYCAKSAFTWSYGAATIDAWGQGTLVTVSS
VL: ELTQDPAVSVALGQTVRITCSGSSGSYGWYQQKPGQAPVLVIYDNTNRPSGIPDRFSGSSSGNTASLTITGAQAEDEADYYCGGYDGSTDVFGGGTKLTVL
B4: A110 scFv (scFv, V domains shown)
VH: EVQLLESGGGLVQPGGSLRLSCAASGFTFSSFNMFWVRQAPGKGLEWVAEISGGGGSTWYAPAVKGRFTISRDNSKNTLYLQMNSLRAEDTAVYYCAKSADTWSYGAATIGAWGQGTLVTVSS
VL: ELTQDPAVSVALGQTVRITCSGSSGSYGWYQQKPGQAPVLVIYDNTNRPSGIPDRFSGSSSGNTASLTITGAQAEDEADYYCGGYDGSTDVFGGGTKLTVL
B5: A109 scFv (scFv, V domains shown)
VH: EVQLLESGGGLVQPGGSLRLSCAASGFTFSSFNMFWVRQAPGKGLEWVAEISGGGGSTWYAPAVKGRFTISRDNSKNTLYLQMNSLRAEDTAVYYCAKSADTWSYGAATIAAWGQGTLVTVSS
VL: ELTQDPAVSVALGQTVRITCSGSSGSYGWYQQKPGQAPVLVIYDNTNRPSGIPDRFSGSSSGNTASLTITGAQAEDEADYYCGGYDGSTDVFGGGTKLTVL
B6: A104 scFv (scFv, V domains shown)
VH: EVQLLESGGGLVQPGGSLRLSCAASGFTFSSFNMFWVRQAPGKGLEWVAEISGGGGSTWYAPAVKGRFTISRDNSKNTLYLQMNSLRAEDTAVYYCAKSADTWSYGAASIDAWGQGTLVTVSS
VL: ELTQDPAVSVALGQTVRITCSGSSGSYGWYQQKPGQAPVLVIYDNTNRPSGIPDRFSGSSSGNTASLTITGAQAEDEADYYCGGYDGSTDVFGGGTKLTVL
B7: A113 scFv (scFv, V domains shown)
VH: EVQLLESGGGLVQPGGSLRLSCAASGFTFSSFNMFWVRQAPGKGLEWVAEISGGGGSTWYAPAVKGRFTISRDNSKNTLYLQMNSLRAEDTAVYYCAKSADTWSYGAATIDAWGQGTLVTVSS
VL: ELTQDPAVSVALGQTVRITCSGSSGSYGWYQQKPGQAPVLVIYDNTNRPSGIPDRFSGSSSGNTASLTITGAQAEDEADYYCGGYRGSTDVFGGGTKLTVL
B8: A111 scFv (scFv, V domains shown)
VH: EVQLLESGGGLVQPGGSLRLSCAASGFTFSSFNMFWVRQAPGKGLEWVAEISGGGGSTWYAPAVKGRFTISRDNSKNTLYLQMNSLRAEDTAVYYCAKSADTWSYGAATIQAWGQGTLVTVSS
VL: ELTQDPAVSVALGQTVRITCSGSSGSYGWYQQKPGQAPVLVIYDNTNRPSGIPDRFSGSSSGNTASLTITGAQAEDEADYYCGGYDGSTDVFGGGTKLTVL
B9: A112 scFv (scFv, V domains shown)
VH: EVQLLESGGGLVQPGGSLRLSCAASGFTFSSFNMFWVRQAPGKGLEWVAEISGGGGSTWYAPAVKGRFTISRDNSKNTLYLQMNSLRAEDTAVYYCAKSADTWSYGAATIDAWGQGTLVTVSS
VL: ELTQDPAVSVALGQTVRITCSGRSGSYGWYQQKPGQAPVLVIYDNTNRPSGIPDRFSGSSSGNTASLTITGAQAEDEADYYCGGYDGSTDVFGGGTKLTVL
B10: A102 scFv (scFv, V domains shown)
VH: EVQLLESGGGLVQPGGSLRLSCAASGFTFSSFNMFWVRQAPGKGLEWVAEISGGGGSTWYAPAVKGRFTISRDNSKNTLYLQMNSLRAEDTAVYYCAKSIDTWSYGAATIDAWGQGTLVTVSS
VL: ELTQDPAVSVALGQTVRITCSGSSGSYGWYQQKPGQAPVLVIYDNTNRPSGIPDRFSGSSSGNTASLTITGAQAEDEADYYCGGYDGSTDVFGGGTKLTVL

These binders were tested against T1, mouse CNTN4 overexpressed on 293F cells (assay: FACS, scFv periplasm on mouse CNTN4-overexpressing 293F cells, PE anti-His detection).

In order of rising EC50:
1. B2  7.6 nM
2. B5  8.3 nM
3. B8  10.4 nM
4. B3  12 nM
5. B10  17.3 nM
6. B4  20.1 nM
7. B1  20.2 nM
8. B6  29.4 nM
9. B9  32.5 nM
10. B7  45.8 nM

In order of rising “Top MFI” value:
1. B7  1100 MFI
2. B9  1860 MFI
3. B6  2050 MFI
4. B10  2110 MFI
5. B4  2150 MFI
6. B2  2260 MFI
7. B3  2740 MFI
8. B5  2830 MFI
9. B1  2840 MFI
10. B8  4190 MFI
